B1: HDV Ribozyme (parent)
chain: GGCCGGCAUGGUCCCAGCCUCCUCGCUGGCGCCGGCUGGGCAACAUUCCGAGGGGACCGUCCCCUCGGUAAUGGCGAAUGGGACCCA

Variants of: B1
Assay: self-cleavage, relative activity (ratio to wild type); higher = more cleavage; co-transcriptional

Variant	self-cleavage
G6A G76C	0.764
U72A A83C	0.219
C24U U47G	0.266
C21U G52A	0.24
U23G U60G	0.665
G82A C86U	0.522
C14U U65C	0.997
G38C G68U	0.272
U27A U69A	0.831
U12G G28U	0
C49G A70U	0.429
C24G C26G	0.277
G2C G76C	0.0747
A45G A78G	0.617
G28U G74A	0.0528
A8C A43G	0.151
C13A G54C	0.283
G34C C84G	0.166
C32U C85G	0.831
G5A G55C	0.104
C36A C49A	0.0554
A8U U60G	0.89
C30G C57G	0.208
A77C A78U	0.208

Variant	self-cleavage
G39U A56U	0.819
G28A G34U	0.0277
G55C G76C	0.943
U9C G25C	0.0615
U47A A87G	0.96
C32A G35A	0.122
G17U U72A	0.119
G28U C44A	0
C13A G68C	0.151
G68U A71G	1.04
U23G A42U	0.0997
A16C G50A	0.525
C18U A77G	0.623
C15G G67A	0.731
G17A G68U	0.659
C57A A78U	0.108
C48G U72G	0.369
C33U G38C	0.125
A77G G81C	0.256
U23C G34U	0.145
U46C	0.815
G38C G80U	0.0314
C13U A56U	0.554
C3G C30U	0.156

Variant	self-cleavage
U9A C22U	0.831
U65C C84G	0.646
C48A C75U	0.339
A78C A87U	0.199
U20G A83U	0.0554
G10A C85G	0.892
G2C A8U	0
G39U A78C	0.13
G5C U12C	0
G1A C57A	0.208
A70G G81U	0.0978
C14G G54A	0.639
G34A C48U	0.132
C26U G39A	0.599
C30A G34C	0.119
C30G G73U	0.0845
C14A C22U	0.181
C3U C49A	0.843
U23A C61U	1.25
A42U C66A	0.511
C19U U60C	0.0906
G50C G67A	0.565
C4U U9C	0.727
G35C A51U	0.396

Variant	self-cleavage
C19U C30A	0.0449
G1C G39C	0.0519
U23C G40A	0.8
G82C A83U	0.237
C22G C36G	0.123
C24A G35U	0.298
A16U A56C	0.906
C18G U47G	0.256
U46A C57A	0.851
U9C C61U	0.81
C66G A77U	0.597
C30U U79A	0.293
G35U A56U	0.62
C18A U79G	0.0639
G5U U37G	0.0755
G39A A71C	0.332
C24A G39C	0.0692
G1U C30U	0.35
C14G G68A	0.431
A56C G74U	0.708
G35A C44A	0
G11C G80A	0.136
U20A G28U	0.0386
U37C C75U	0.0997

Variant	self-cleavage
C3G C63U	0.589
G34A C84U	0.142
G29C G81A	0.0639
U47A G76C	0.812
G28A U60G	0.0386
C36G C41G	0.151
A16C G73A	0.504
A16C G39A	0.156
C7G C22A	0
G25A G39C	0.0332
C32G A87G	0.0665
A43G A70C	0.9
C21U C49A	0.291
G2U G40A	0.0369
U23G G38A	0.0923
G34C C64U	0.271
A42C A43C	0
U9A C48U	0.914
A56U C63U	0.799
U12A C49G	0.115
U23A U47C	1.14
G73A G80A	0.0652
G34U C41G	0.0723
C33G U60G	0.217

Variant	self-cleavage
G31U G73C	0
C32U A70C	0.68
G29U C33A	0.0519
C22A A87U	0.24
C7A C41G	0
U12A A87U	0.262
U46G A71G	0.772
G6C G25C	0
U23A U46C	0.929
G6U C26A	0.397
A8U G40C	0.234
A42G U47G	0.7
G39C A77C	0.0519
G55A G59A	1.13
C24A U27G	0.415
C7U U46C	0.447
C18U U37A	0.0773
C24U G67A	0.554
C66U A77G	0.489
A56U	0.989
G31A C32A	0.0941
C13G G35C	0.0536
U23C A56G	0.87
G2C G34A	0.0504

Variant	self-cleavage
A8G G31A	0.415
G2A C44A	0.0875
C66U A78U	0.309
C4U U23A	0.727
C21G C86G	0.0369
G29A C62A	0.391
G25C G39U	0.0978
G10C C21U	0.0256
U23C C58U	0.928
C14U G68A	0.95
A8U C58A	0.862
A56C G59U	0.848
G40A A71U	0.796
C7U G54A	0.787
G10U A83U	0.177
G1C C19G	0
G10U C44G	0.296
C24A A42U	0.0639
C21A A43C	0.116
G17C U20A	0.0573
G6C C26U	0.646
G54U G80C	0.159
C24G U79A	0.0898
